Reference: paper PMC11724289, “Structural insights into a DNA polymerase reading the xeno nucleic acid HNA”

Experiments:
[1] = target: T1, KOD-H4 DNA polymerase V93Q;I114T;D141A;E143A;S383K;K429G;F445L;A485L;Y493V;Y496H;Y497M;Y499F;A500E;R501N;I521L;E664K;K726R;N735K (Thermococcus kodakarensis KOD?) (UniProt D0VWU9); experiment: fluorescence polarization; settings: template fully HNA (1,5-anhydrohexitol nucleic acid); primer DNA; FP: 1x ThermoPol (20 mM Tris-HCl, 10 mM (NH4)2SO4, 10 mM KCl, 2 mM MgSO4, 0.1% Triton X-100, pH 8.8), 25 C, 20 min, 5 nM labeled primer
T1 sequence: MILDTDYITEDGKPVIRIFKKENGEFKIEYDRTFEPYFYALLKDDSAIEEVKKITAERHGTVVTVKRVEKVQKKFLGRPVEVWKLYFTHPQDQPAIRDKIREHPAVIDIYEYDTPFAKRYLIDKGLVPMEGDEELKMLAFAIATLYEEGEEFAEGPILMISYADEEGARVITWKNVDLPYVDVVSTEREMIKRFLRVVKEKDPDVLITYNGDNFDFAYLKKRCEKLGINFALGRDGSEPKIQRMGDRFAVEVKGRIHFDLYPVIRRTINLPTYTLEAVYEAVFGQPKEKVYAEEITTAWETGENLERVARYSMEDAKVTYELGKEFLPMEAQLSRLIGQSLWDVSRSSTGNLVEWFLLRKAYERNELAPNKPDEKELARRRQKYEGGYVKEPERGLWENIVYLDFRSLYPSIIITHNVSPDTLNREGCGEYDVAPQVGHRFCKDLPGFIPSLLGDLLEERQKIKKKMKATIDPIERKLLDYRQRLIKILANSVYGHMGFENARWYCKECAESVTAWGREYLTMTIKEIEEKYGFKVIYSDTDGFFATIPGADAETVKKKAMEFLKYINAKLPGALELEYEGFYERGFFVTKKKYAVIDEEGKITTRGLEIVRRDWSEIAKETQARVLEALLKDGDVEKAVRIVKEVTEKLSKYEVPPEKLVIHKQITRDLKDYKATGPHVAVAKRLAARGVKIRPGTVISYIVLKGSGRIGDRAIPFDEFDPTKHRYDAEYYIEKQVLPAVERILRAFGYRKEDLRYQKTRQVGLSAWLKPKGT

[2] = target: T2, Tgo-H4 (RT-H4) DNA polymerase V93Q;I114T;D141A;E143A;S383K;E429G;F445L;A485L;F493V;Y496H;Y497M;Y499F;A500E;K501N;I521L;E664K;K726R;N735K (UniProt P56689); experiment: fluorescence polarization; settings: template fully HNA (1,5-anhydrohexitol nucleic acid); primer DNA; FP: 1x ThermoPol (20 mM Tris-HCl, 10 mM (NH4)2SO4, 10 mM KCl, 2 mM MgSO4, 0.1% Triton X-100, pH 8.8), 25 C, 20 min, 5 nM labeled primer
T2 sequence: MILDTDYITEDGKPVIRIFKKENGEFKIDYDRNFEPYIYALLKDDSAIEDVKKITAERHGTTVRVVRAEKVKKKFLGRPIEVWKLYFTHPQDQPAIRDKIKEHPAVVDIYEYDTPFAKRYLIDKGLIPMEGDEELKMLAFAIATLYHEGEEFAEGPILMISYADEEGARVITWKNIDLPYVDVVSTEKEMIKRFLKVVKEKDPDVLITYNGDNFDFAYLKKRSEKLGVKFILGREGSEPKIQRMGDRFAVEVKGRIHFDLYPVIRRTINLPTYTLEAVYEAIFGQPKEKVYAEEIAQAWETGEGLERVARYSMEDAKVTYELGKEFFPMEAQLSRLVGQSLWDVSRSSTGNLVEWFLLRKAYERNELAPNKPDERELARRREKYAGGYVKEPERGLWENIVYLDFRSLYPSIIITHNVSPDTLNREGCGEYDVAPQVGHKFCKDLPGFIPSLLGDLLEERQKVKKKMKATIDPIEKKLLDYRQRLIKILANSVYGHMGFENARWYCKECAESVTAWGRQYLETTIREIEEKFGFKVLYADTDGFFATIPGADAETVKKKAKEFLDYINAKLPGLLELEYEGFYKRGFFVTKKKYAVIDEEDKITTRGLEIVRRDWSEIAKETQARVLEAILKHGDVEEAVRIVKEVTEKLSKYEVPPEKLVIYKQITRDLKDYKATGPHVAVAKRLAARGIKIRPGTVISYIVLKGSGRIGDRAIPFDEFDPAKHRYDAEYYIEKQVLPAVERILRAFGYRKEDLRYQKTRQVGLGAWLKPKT

[3] = target: T3, KOD-H4 DNA polymerase (UniProt D0VWU9 1-774, V93Q;I114T;D141A;E143A;S383K;K429G;F445L;A485L;Y493V;Y496H;Y497M;Y499F;A500E;R50 …); experiment: X-ray crystallography; dGTP analogue dGMPNPP-type (alpha,beta-imido, NHdGTP); Mg2+ or Mg2+/Mn2+; FP: 1x ThermoPol (20 mM Tris-HCl, 10 mM (NH4)2SO4, 10 mM KCl, 2 mM MgSO4, 0.1% Triton X-100, pH 8.8), 25 C, 20 min, 5 nM labeled primer; settings: protein: recombinant; 5' overhang 3 nt on template; 13-nt duplex
T3 sequence: T1 sequence

[4] = target: T4, Tgo-H4 (RT-H4) DNA polymerase (UniProt P56689 1-773, V93Q;I114T;D141A;E143A;S383K;E429G;F445L;A485L;F493V;Y496H;Y497M;Y499F;A500E;K50 …); experiment: fluorescence polarization; 2 mM MgSO4; apparent KD, Hill slope 1.66; FP: 1x ThermoPol (20 mM Tris-HCl, 10 mM (NH4)2SO4, 10 mM KCl, 2 mM MgSO4, 0.1% Triton X-100, pH 8.8), 25 C, 20 min, 5 nM labeled primer; settings: protein: recombinant; label: 5'-6-FAM on primer; 5' overhang 6 nt on template; 10-nt duplex
T4 sequence: T2 sequence

[5] = target: T3, KOD-H4 DNA polymerase; experiment: fluorescence polarization; 2 mM MgSO4; apparent KD, Hill slope 1.67; FP: 1x ThermoPol (20 mM Tris-HCl, 10 mM (NH4)2SO4, 10 mM KCl, 2 mM MgSO4, 0.1% Triton X-100, pH 8.8), 25 C, 20 min, 5 nM labeled primer; settings: protein: recombinant; label: 5'-6-FAM on primer; 5' overhang 6 nt on template; 10-nt duplex

Question: “GACCACGGCC / AACTGTGGCCGTGGTC [DNA primer/HNA template (FP)]” was tested. Which Kd [1] did it give?
Answer: 80.2 nM

Question: And the Kd [2]?
Answer: 61.5 nM

B1: 13mer DNA primer/DNA template (crystal) (dsDNA)
DNA 1: GACCACGGCCACA
DNA 2: AACTGTGGCCGTGGTC
Question: Does B1 bind [3]?
Answer: binds

B2: DNA primer/DNA template (FP) (dsDNA)
DNA 1: GACCACGGCC
DNA 2: AACTGTGGCCGTGGTC
Question: With B2 as the molecule, how does the Kd [4] read?
Answer: 10 nM

Question: What about the Kd [5] of the same molecule?
Answer: 12.5 nM
